Results published in PMC11228396.

Target: Stabilized soluble Omicron BA.1 spike (SARS-CoV-2)
Test: cryo-EM structure

## Stabilized soluble Omicron BA.1 spike (domain or fragment)
  stoichiometry N: 3
